Target: recombinant ED-B protein (UniProt P02751)
Assay: I-125 labelled antibody on a small column of ED-B sepharose, elution with TEA pH 11

UniProt P02751, sequence (P02751 1266-1356 limits assumed): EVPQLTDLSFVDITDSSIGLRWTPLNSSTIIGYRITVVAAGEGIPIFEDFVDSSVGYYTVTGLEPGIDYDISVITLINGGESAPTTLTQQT

immuno-reactivity (% of labeled material that bound to the ED-B sepharose column and was eluted): 85 to 95%
Substance: L19, human recombinant antibody directed against the Extra Domain B
